Experimental data as given in paper PMC12412652 (Science Advances, 2025).
Blank lines part the entries; values can stand above or below the binder they belong to.

Assays:
Conditions in all cases: both partners purified
[1] = target: BCL-2, biotinylated (UniProt P10415 1-239, biotin); assay: BLI; Octet RED96; biotinylated BCL-2 proteins (25 nM) immobilised on streptavidin biosensors; 10 mM Hepes pH 7.4, 150 mM NaCl, 3 mM EDTA, 0.05% surfactant P20, 0.5% nonfat dry milk; multiple-concentration titrations, 1:1 binding model
[2] = target: BCL-XL, biotinylated (UniProt Q07817-1 1-233, biotin); assay: as above
[3] = target: MBP-BIM-BH3; assay: BLI; Octet RED96; biotinylated BCL-2 family proteins (25 nM) immobilised on streptavidin biosensors, designed protein in solution; 10 mM Hepes pH 7.4, 150 mM NaCl, 3 mM EDTA, 0.05% surfactant P20, 0.5% nonfat dry milk; titrations in triplicate, 1:1 binding model
[4] = target: T1, BAK-CDP02 (BAK-targeting computationally designed protein 02 of 11); assay: as above
T1 construct: Cloned into pET29b; source: E. coli, purified (Ni-NTA, SEC)

[5] = target: T2, αBAK1; assay: as above
T2 construct: source: E. coli, purified

[6] = target: T3, αBAK2; assay: as above
T3 construct: Form used for BLI and, as far as told, for the liposome and cytochrome c assays; source: E. coli, purified

[7] = target: αBAX1; assay: as above

Sequence of BCL-XL, biotinylated (Q07817 whole entry): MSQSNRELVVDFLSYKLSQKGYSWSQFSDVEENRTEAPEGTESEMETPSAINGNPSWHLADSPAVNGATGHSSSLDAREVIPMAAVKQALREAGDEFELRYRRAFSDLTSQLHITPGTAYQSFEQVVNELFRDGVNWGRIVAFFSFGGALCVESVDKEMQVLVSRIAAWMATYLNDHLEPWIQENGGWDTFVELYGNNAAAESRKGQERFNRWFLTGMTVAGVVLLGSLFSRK
Sequence of BCL-2, biotinylated (P10415 whole entry): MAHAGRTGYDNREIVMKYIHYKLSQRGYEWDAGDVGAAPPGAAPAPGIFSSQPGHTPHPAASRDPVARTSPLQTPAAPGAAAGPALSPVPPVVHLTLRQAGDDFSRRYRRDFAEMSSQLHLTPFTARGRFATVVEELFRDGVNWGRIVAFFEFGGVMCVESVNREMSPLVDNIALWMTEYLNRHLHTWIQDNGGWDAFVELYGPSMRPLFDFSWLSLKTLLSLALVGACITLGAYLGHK

Kd [1]: 47 ± 5 nM
Kd [2]: 2.3 ± 0.4 nM
B1: MBP-BidBH3 (domain or fragment, UniProt P55957 1-195, looked up)
chain: MDCEVNNGSSLRDECITNLLVFGFLQSCSDNSFRRELDALGHELPVLAPQWEGYDELQTDGNRSSHSRLGRIEADSESQEDIIRNIARHLAQVGDSMDRSIPPGLVNGLALQLRNTSRSEEDRNRDLATALEQLLQAYPRDMEKEKTMLVLALLLAKKVASHTPSLLRDVFHTTVNFINQNLRTYVRSLARNGMD
notes: BH3 peptide of the BH3-only protein BID, fused to MBP

Kd [3]: 4000 ± 2000 nM
Kd [4]: 60 nM
Kd [5]: 7 nM
Kd [6]: 0.4 nM
B2: MBP-BAK 16-186, biotinylated (Avi tag, 6-histidine tag) (domain or fragment)
chain: EPALPSASEEQVAQDTEEVFRSYVFYRHQQEQEAEGVAAPADPEMVTLPLQPSSTMGQVGRQLAIIGDDINRRYDSEFQTMLQHLQPTAENAYEYFTKIATSLFESGINWGRVVALLGFGYRLALHVYQHGLTGFLGQVTRFVVDFMLHHCIARWIAQRGGWVAALNLGNGLEGLNDIFEAQKIEWHEGSHHHHHH
modifications: biotin on the Avi tag (enzymatic, BirA)

Kd [7]: 5 nM
B3: BFL-1 (natural protein)
chain: MTDCEFGYIYRLAQDYLQCVLQIPQPGSGPSKTSRVLQNVAFSVQKEVEKNLKSCLDNVNVVSVDTARTLFNQVMEKEFEDGIINWGRIVTIFAFEGILIKKLLRQQIAPDVDTYKEISYFVAEFIMNNTGEWIRQNGGWENGFVKKFEPKSG
modifications: biotin
